This is an account of results in paper PMC4170648, “Clinically used antirheumatic agent auranofin is a proteasomal deubiquitinase inhibitor and inhibits tumor growth” (Oncotarget, 2014).

For the assay, the target named is T1, HA-tagged ubiquitin-Vinyl Sulfone (UniProt P0CG48 1-76, vinyl sulfone (position not given)).
T1 construct: ubiquitin, the mature cut product of a ubiquitin precursor, carrying a vinyl sulfone warhead; Commercial active-site probe; also called HA-UbVS; HA-Ub-VS; source: bought: Boston Biochem
As to the kind of experiment: active-site-directed covalent labelling with HA-UbVS; purified 26S proteasomes (25 nM) incubated with HA-UbVS for 1 h at 37°C, boiled in reducing sample buffer, SDS-PAGE, HA immunoblot; without Aur, and after 2 μM Aur for 10 min (labelling reduced). As to conditions: both partners purified. In general terms: A western blot detects proteins with antibodies after separation by electrophoresis.

B1: UCHL5 (enzyme, human, UniProt Q9Y5K5 1-329, looked up)
chain: MTGNAGEWCLMESDPGVFTELIKGFGCRGAQVEEIWSLEPENFEKLKPVHGLIFLFKWQPGEEPAGSVVQDSRLDTIFFAKQVINNACATQAIVSVLLNCTHQDVHLGETLSEFKEFSQSFDAAMKGLALSNSDVIRQVHNSFARQQMFEFDTKTSAKEEDAFHFVSYVPVNGRLYELDGLREGPIDLGACNQDDWISAVRPVIEKRIQKYSEGEIRFNLMAIVSDRKMIYEQKIAELQRQLAEEEPMDTDQGNSMLSAIQSEVAKNQMLIEEEVQKLKRYKIENIRRKHNYLPFIMELLKTLAEHQQLIPLVEKAKEKQNAKKAQETK
notes: UCHL5/Uch37, human, deubiquitinase associated with the 19S regulatory particle, present in purified 26S proteasomes; It stood in the assay as a component of the bought 26S proteasome and was resolved as a labelled band on SDS-PAGE; PDB 3RIS was used only for docking of the small molecule; also called UCHL5/Uch37; source: bought: Boston Biochem, as part of purified human 26S proteasomes
With B1, the binding result is “binds”.
